18 molecules from article PMC7203112, “Structural basis for the complex DNA binding behavior of the plant stem cell regulator WUSCHEL” can be followed below.

The target in one data set is T1, YFP-WUS-HD (Arabidopsis thaliana, UniProt Q9SB92 34-103).
T1 sequence: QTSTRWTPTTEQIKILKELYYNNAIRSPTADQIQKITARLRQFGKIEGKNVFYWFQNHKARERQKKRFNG
The data set is described as follows: MST; MST: 20 mM Tris-HCl pH 8.0, 75 mM NaCl, 10 mM MgCl2, 0.05% Tween-20, 20 C, 50 nM YFP-WUS; ITC: same without Tween, 20 C; EMSA: 10 mM Tris-HCl pH 8.0, 75 mM NaCl, 50 ug/ml poly(dI-dC), 1 mM EDTA, 1 mM DTT, 5% glycerol. Particulars: protein: recombinant; tags: N-terminal His6-YFP, C-terminal StrepII; blunt.

The next data set addresses T2, YFP-WUS-HD S36R (Arabidopsis thaliana, UniProt Q9SB92 34-103, S36R).
T2 sequence: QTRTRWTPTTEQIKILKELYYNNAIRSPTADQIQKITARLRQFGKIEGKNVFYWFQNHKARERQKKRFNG
The description is as above. To be noted: protein: recombinant; tags: N-terminal His6-YFP, C-terminal StrepII; blunt.

Another data set addresses T3, YFP-WUS-HD T35R (Arabidopsis thaliana, UniProt Q9SB92 34-103, T35R).
T3 sequence: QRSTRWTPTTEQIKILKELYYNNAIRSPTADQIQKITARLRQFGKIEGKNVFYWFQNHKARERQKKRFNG
The description is as above. Particulars: protein: recombinant; tags: N-terminal His6-YFP, C-terminal StrepII; blunt.

The target in the next data set is T4, YFP-WUS-HD R94K (Arabidopsis thaliana, UniProt Q9SB92 34-103, R94K).
T4 sequence: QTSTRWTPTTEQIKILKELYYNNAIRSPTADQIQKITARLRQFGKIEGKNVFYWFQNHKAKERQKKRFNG
The description is as above. To be noted: protein: recombinant; tags: N-terminal His6-YFP, C-terminal StrepII; blunt.

The target of data set [1] is T5, WUS-HD (Arabidopsis thaliana, UniProt Q9SB92 34-103).
T5 sequence: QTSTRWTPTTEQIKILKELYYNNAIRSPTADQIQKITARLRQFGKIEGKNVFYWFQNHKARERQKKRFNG
The data set is described as follows: EMSA; shift slightly modified; MST: 20 mM Tris-HCl pH 8.0, 75 mM NaCl, 10 mM MgCl2, 0.05% Tween-20, 20 C, 50 nM YFP-WUS; ITC: same without Tween, 20 C; EMSA: 10 mM Tris-HCl pH 8.0, 75 mM NaCl, 50 ug/ml poly(dI-dC), 1 mM EDTA, 1 mM DTT, 5% glycerol. Particulars: protein: recombinant; tags: none after TEV cleavage (from His6-MBP); label: Cy5; blunt. On the technique in general: A gel shift assay detects complexes by their altered migration in electrophoresis.

The target of data set [2] is T5, WUS-HD. The data set can be described thus: EMSA; MST: 20 mM Tris-HCl pH 8.0, 75 mM NaCl, 10 mM MgCl2, 0.05% Tween-20, 20 C, 50 nM YFP-WUS; ITC: same without Tween, 20 C; EMSA: 10 mM Tris-HCl pH 8.0, 75 mM NaCl, 50 ug/ml poly(dI-dC), 1 mM EDTA, 1 mM DTT, 5% glycerol. Particulars: protein: recombinant; tags: none after TEV cleavage (from His6-MBP); label: Cy5; blunt.

A further data set concerns the target T6, MBP-WUS-FL (Arabidopsis thaliana, UniProt Q9SB92 1-292).
T6 sequence: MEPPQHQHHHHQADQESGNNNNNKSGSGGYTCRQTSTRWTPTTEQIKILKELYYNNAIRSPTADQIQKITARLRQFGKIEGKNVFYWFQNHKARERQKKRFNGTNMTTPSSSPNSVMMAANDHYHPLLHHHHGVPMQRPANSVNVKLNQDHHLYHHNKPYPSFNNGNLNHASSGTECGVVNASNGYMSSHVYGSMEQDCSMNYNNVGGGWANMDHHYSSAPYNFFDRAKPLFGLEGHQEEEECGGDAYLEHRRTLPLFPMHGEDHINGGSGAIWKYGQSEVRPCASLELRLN
Described as above. Particulars: protein: recombinant; tags: N-terminal His6-MBP; chain copies: 2; label: Cy5; blunt.

Data set [3] deals with T5, WUS-HD. The data set can be described thus: crystal structure; 2.8 A; two or three HD per DNA; MST: 20 mM Tris-HCl pH 8.0, 75 mM NaCl, 10 mM MgCl2, 0.05% Tween-20, 20 C, 50 nM YFP-WUS; ITC: same without Tween, 20 C; EMSA: 10 mM Tris-HCl pH 8.0, 75 mM NaCl, 50 ug/ml poly(dI-dC), 1 mM EDTA, 1 mM DTT, 5% glycerol. Particulars: protein: recombinant; tags: none after TEV cleavage (from His6-MBP); blunt.

In the next data set the target is T7, YFP-WUS-HD I66A (Arabidopsis thaliana, UniProt Q9SB92 34-103, I66A).
T7 sequence: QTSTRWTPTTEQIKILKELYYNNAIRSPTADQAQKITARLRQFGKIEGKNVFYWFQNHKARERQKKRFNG
The data set is described as follows: MST; MST: 20 mM Tris-HCl pH 8.0, 75 mM NaCl, 10 mM MgCl2, 0.05% Tween-20, 20 C, 50 nM YFP-WUS; ITC: same without Tween, 20 C; EMSA: 10 mM Tris-HCl pH 8.0, 75 mM NaCl, 50 ug/ml poly(dI-dC), 1 mM EDTA, 1 mM DTT, 5% glycerol. To be noted: protein: recombinant; tags: N-terminal His6-YFP, C-terminal StrepII; blunt.

For a further data set, the target named is T8, YFP-WUS-HD F101A (Arabidopsis thaliana, UniProt Q9SB92 34-103, F101A).
T8 sequence: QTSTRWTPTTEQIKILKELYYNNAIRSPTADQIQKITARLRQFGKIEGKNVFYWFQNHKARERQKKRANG
The data set is described as above. To be noted: protein: recombinant; tags: N-terminal His6-YFP, C-terminal StrepII; blunt.

Another data set addresses T9, YFP-WUS-HD F85A (Arabidopsis thaliana, UniProt Q9SB92 34-103, F85A).
T9 sequence: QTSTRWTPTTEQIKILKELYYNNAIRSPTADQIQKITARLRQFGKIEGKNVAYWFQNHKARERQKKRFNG
Described as above. To be noted: protein: recombinant; tags: N-terminal His6-YFP, C-terminal StrepII; blunt.

The target in data set [4] is T5, WUS-HD. The data set is described as follows: ITC; first binding event (Kd,1), sequential model, 2:1; MST: 20 mM Tris-HCl pH 8.0, 75 mM NaCl, 10 mM MgCl2, 0.05% Tween-20, 20 C, 50 nM YFP-WUS; ITC: same without Tween, 20 C; EMSA: 10 mM Tris-HCl pH 8.0, 75 mM NaCl, 50 ug/ml poly(dI-dC), 1 mM EDTA, 1 mM DTT, 5% glycerol. To be noted: protein: recombinant; tags: none after TEV cleavage (from His6-MBP); blunt.

B1: 3xTGAT (dsDNA)
DNA 1: CGTGATTGATTGATCC
DNA 2: GGATCAATCAATCACG
For the molecule B1, the Kd (commonly the constant that tells how readily two partners part at equilibrium) with YFP-WUS-HD is 120 ± 10 nM.

B2: TGAA 16-bp (dsDNA)
DNA 1: AGTGTATGAATGAACG
DNA 2: CGTTCATTCATACACT
As to B2, the Kd came out at 320 ± 30 nM with YFP-WUS-HD S36R, 540 ± 70 nM with YFP-WUS-HD T35R, 11000 ± 1620 nM with YFP-WUS-HD R94K and 270 ± 30 nM in the data set with YFP-WUS-HD.

B3: 3xTGAA 1xSpacing (dsDNA)
DNA 1: CTGAACTGAACTGAAC
DNA 2: GTTCAGTTCAGTTCAG
For B3, the dissociation constant Kd with YFP-WUS-HD is 840 ± 120 nM.

B4: f_TAAT T12C,T15C (dsDNA)
DNA 1: GTGTTAATGGGCTGCG
DNA 2: CGCAGCCCATTAACAC
With B4, the binding result in the data set with WUS-HD [1] is recorded as “binds”.

B5: 2xTGAA 1xSpacing (dsDNA)
DNA 1: CGCTGAACTGAACGCC
DNA 2: GGCGTTCAGTTCAGCG
For B5, in the data set with YFP-WUS-HD, the Kd stood at 2210 ± 250 nM.

B6: 3xTGAC (dsDNA)
DNA 1: CGTGACTGACTGACCC
DNA 2: GGGTCAGTCAGTCACG
With B6, in the data set with YFP-WUS-HD, the dissociation constant Kd stood at 390 ± 50 nM.

B7: f_TAAT wt 16-bp (dsDNA)
DNA 1: GTGTTAATGGGTTGTG
DNA 2: CACAACCCATTAACAC
For the molecule B7, in the data set with WUS-HD [2], the binding result is given as “binds”.

B8: f_G-Box (dsDNA)
DNA 1: CATCGTCGTCACGTGATGGG
DNA 2: CCCATCACGTGACGACGATG
As to B8, the Kd with MBP-WUS-FL came to 1680 ± 300 nM.

B9: 3xTGAG (dsDNA)
DNA 1: CGTGAGTGAGTGAGCC
DNA 2: GGCTCACTCACTCACG
B9: the Kd with YFP-WUS-HD is 1420 ± 170 nM.

B10: 1xTGAA (dsDNA)
DNA 1: CGCCGGTGAAGCCGCC
DNA 2: GGCGGCTTCACCGGCG
With B10, the dissociation constant Kd with YFP-WUS-HD was 10500 ± 2300 nM.

B11: G-Box 16-bp (dsDNA)
DNA 1: GTCGTCACGTGATGGG
DNA 2: CCCATCACGTGACGAC
In the case of B11, the dissociation constant Kd with YFP-WUS-HD turned out to be 3780 ± 420 nM.

B12: TGAA Tail-to-Tail (dsDNA)
DNA 1: CGCCTGAATTCACGCC
DNA 2: GGCGTGAATTCAGGCG
As for B12, the Kd in the data set with YFP-WUS-HD turned out to be 1900 ± 200 nM.

B13: TAAT 16-bp (dsDNA)
DNA 1: GTGTTAATGGGTTGTG
DNA 2: CACAACCCATTAACAC
As for B13, the equilibrium dissociation constant (Kd) with YFP-WUS-HD S36R amounted to 1670 ± 170 nM; with YFP-WUS-HD T35R, 1670 ± 200 nM; with YFP-WUS-HD R94K, 4590 ± 580 nM. In the data set with WUS-HD [3], the binding result is on record as “binds”.

B14: f_TAAT T12C (dsDNA)
DNA 1: GTGTTAATGGGCTGTG
DNA 2: CACAGCCCATTAACAC
B14: the binding result with WUS-HD [2] was “binds”.

B15: 2xTGAA 4xSpacing (dsDNA)
DNA 1: CGTGAAGCGCTGAACC
DNA 2: GGTTCAGCGCTTCACG
Regarding B15, the Kd with YFP-WUS-HD is 3580 ± 440 nM.

B16: 2xTGAA (dsDNA)
DNA 1: CGCCTGAATGAACGCC
DNA 2: GGCGTTCATTCAGGCG
With B16, the dissociation constant Kd came to 8200 ± 840 nM with YFP-WUS-HD I66A; 800 ± 120 nM with YFP-WUS-HD F101A; 300 ± 40 nM with YFP-WUS-HD; 6810 ± 870 nM in the data set with YFP-WUS-HD F85A; 1240 ± 140 nM with WUS-HD [4].

B17: TGAA Head-to-Head (dsDNA)
DNA 1: CGCCTTCATGAACGCC
DNA 2: GGCGTTCATGAAGGCG
Regarding B17, the Kd in the data set with YFP-WUS-HD stood at 3170 ± 350 nM.

B18: 3xTGAA (dsDNA)
DNA 1: CGTGAATGAATGAACC
DNA 2: GGTTCATTCATTCACG
In the case of B18, in the data set with YFP-WUS-HD, the Kd came to 60 ± 10 nM.
